Assay results published in article PMC8857485, “Prostate secretory protein 94 inhibits sterol binding and export by the mammalian CAP protein CRISP2 in a calcium-sensitive manner” (The Journal of Biological Chemistry, 2022).
Residue numbers refer to the chain shown, from its start.

Columns and labels:
CRISP2 N97P, His-tagged [1] = molecular target: T1, CRISP2 N97P, His-tagged (human, UniProt P16562 22-243, N97P, RED-tris-NTA fluorescent label on the His tag); test: MST
T1 sequence: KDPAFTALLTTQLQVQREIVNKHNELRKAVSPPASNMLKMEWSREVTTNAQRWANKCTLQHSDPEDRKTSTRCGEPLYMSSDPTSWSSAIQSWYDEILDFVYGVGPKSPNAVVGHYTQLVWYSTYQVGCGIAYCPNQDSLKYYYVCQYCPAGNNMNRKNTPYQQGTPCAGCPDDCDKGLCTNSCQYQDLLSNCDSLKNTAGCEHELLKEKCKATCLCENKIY

CRISP2 Y99P, His-tagged [2] = molecular target: T2, CRISP2 Y99P, His-tagged (human, UniProt P16562 22-243, Y99P, RED-tris-NTA fluorescent label on the His tag); test: MST
T2 sequence: T1 sequence with P76N, Y78P

CRISP2 L98G, His-tagged [3] = molecular target: T3, CRISP2 L98G, His-tagged (human, UniProt P16562 22-243, L98G, RED-tris-NTA fluorescent label on the His tag); test: MST
T3 sequence: T1 sequence with P76N, L77G

[4] = molecular target: T4, CRISP3 (cysteine-rich secretory protein 3), C-terminal polyhistidine tag (human, UniProt P54108 21-245, RED-tris-NTA fluorescent label on the His tag); test: MST; 100 nM CAP protein labelled with RED-tris-NTA on its His tag, serial dilution of unlabeled PSP94 or PSP94^F24G; 20 mM Tris pH 7.5, 30 mM NaCl, 0.05% Triton X-100; Monolith NT.115, 80% laser power; triplicates; conditions: both partners purified
T4 construct: CRISP3, human; pET22b; source: E. coli, inclusion bodies, purified under denaturing conditions, renatured (nickel-NTA); not shown: polyhistidine, C-terminal, kept
T4 sequence (looked up): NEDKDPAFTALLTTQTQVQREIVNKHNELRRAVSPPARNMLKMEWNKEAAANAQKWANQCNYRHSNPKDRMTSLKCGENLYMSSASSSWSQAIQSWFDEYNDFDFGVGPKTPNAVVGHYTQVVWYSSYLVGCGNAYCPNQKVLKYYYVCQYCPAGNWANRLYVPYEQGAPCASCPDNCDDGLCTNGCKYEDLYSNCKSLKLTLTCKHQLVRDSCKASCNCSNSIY

[5] = molecular target: T5, CRISP2 (cysteine-rich secretory protein 2), C-terminal polyhistidine tag (human, UniProt P16562 22-243, RED-tris-NTA fluorescent label on the His tag); test: as above; conditions: both partners purified
T5 construct: also called Tpx-1; testis-specific protein 1; source: E. coli BL21, purified (nickel-NTA); not shown: polyhistidine, C-terminal, kept
T5 sequence (looked up): T1 sequence with P76N

CRISP2 Y99P, His-tagged [6] = molecular target: T6, CRISP2 Y99P, His-tagged (human, UniProt P16562 22-243, Y99P, RED-tris-NTA fluorescent label on the His tag); test: as above; conditions: both partners purified
T6 construct: CRISP2 with the point mutation Y99P in the β2-strand; Same construct as m4 with the mutation; source: E. coli, purified; not shown: polyhistidine, C-terminal, kept
T6 sequence (looked up): T1 sequence with P76N, Y78P

CRISP2 L98G, His-tagged [7] = molecular target: T7, CRISP2 L98G, His-tagged (human, UniProt P16562 22-243, L98G, RED-tris-NTA fluorescent label on the His tag); test: as above; conditions: both partners purified
T7 construct: CRISP2 with the point mutation L98G in the β2-strand; Same construct as m4 with the mutation; source: E. coli, purified; not shown: polyhistidine, C-terminal, kept
T7 sequence (looked up): T1 sequence with P76N, L77G

CRISP2 N97P, His-tagged [8] = molecular target: T8, CRISP2 N97P, His-tagged (human, UniProt P16562 22-243, N97P, RED-tris-NTA fluorescent label on the His tag); test: as above; conditions: both partners purified
T8 construct: CRISP2 with the point mutation N97P in the β2-strand; Same construct as m4 with the mutation; source: E. coli, purified; not shown: polyhistidine, C-terminal, kept
T8 sequence (looked up): T1 sequence

[9] = molecular target: T9, Pry1 (pathogen related in yeast 1), C-terminal polyhistidine tag (S. cerevisiae, UniProt P47032 20-299, RED-tris-NTA fluorescent label on the His tag); test: as above; conditions: both partners purified
T9 construct: Pry1, S. cerevisiae CAP family member; source: E. coli BL21, purified (nickel-NTA); not shown: polyhistidine, C-terminal, kept
T9 sequence (looked up): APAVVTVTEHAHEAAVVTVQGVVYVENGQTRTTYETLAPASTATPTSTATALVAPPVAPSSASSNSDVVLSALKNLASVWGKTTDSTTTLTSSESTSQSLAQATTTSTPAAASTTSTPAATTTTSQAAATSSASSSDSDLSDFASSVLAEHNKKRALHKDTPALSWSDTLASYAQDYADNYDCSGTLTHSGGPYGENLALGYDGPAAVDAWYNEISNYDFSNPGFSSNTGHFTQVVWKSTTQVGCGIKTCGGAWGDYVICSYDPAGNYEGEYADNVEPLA

CRISP2^N97P L98G = molecular target: T10, CRISP2^N97P L98G (Homo sapiens, UniProt P16562, L98G/N97P); test: MST binding to CRISP2 double mutant N97P L98G; design: species or system mammalian; conditions: read-out: Kd, protein-protein interaction with CRISP2^N97P L98G
T10 construct: made in house; host or cells: E. coli
T10 sequence (P16562 22-243 N97P/L98G): T1 sequence with L77G
Description: Next, we generated all three double mutant combinations of CRISP2: N97P L98G, N97P Y99P, and L98G Y99P. These three double mutant versions of CRISP2 were again expressed as His-tagged proteins in E. coli and purified, and their capacity to bind sterols in the presence or absence of PSP94 was assessed by MST. […] The capacity of the CRISP2^L98G Y99P double mutant to bind sterols even in the presence of PSP94 was confirmed by the in vivo sterol export assay (Fig. 6, A and B). When expressed in yeast cells, the CRISP2^L98G Y99P double mutant was stably expressed and secreted as monitored by Western blotting (Fig. 6C).
MST experiments were performed to assess protein–protein, protein–lipid, and protein–calcium interactions using a Monolith NT.115 (Nanotemper Technologies). Proteins were labeled using the RED-tris-NTA His tag protein labeling kit. Labeled CAP proteins, 100 nM, were mixed with a serial dilution of unlabeled PSP94, PSP9^F24G, cholesterol sulfate, or calcium chloride, prepared in binding buffer (20 mM Tris pH 7.5, 30 mM NaCl, 0.05% Triton X-100). Samples were loaded into MST standard capillaries, and MST measurements were performed using an 80% laser power setting. The dissociation constant Kd was obtained by plotting the normalized fluorescence (Fnorm) against the logarithm of ligand concentration. […]

[10] = system: fatty acid export by CAP family members (CRISP2); test: Fatty acid export assay in yeast; assay type: cell-based, Saccharomyces cerevisiae; conditions: co-expression with CRISP2 in faa1Δ faa4Δ pry1Δ pry3Δ yeast
Excerpt: We and others have previously shown that CAP proteins can bind eicosanoids and free fatty acids at a second lipid-binding site that is independent of the sterol-binding site ([30], [31]). To test whether PSP94 affects fatty acid binding by the CAP domain, we examined whether coexpression of PSP94 with CRISP2 affects fatty acid export from mutant cells lacking the two acyl-CoA synthases Faa1 and Faa4 and two of the three yeast CAP domain proteins, Pry1 and Pry3.
To analyze the CRISP2-dependent export of fatty acids, cells were grown overnight and the supernatant of 5 A600nm units of yeast cells was collected and dried in a freeze dryer. Fatty acid methyl esters (FAMEs) were produced by incubating the dried fractions at 85 °C for 45 min in 1 ml of methanol–sulfuric acid (5% v/v) supplemented with butylated hydroxytoluene (0.01% w/v). The FAMEs were extracted in a mixture containing 1.5 ml of NaCl (0.9% w/v) and 2 ml of hexane, and the upper phase was collected. FAMEs were then resuspended in heptane and separated on an Agilent 7890A gas chromatograph equipped with a DB-23 capillary column (30 m × 0.25 mm × 0.25 μm) (Agilent Technologies) and quantified relative to an internal standard (C17:0, 10 μg) as described ([31]).

B1: prostate secretory protein of 94 amino acids (PSP94), C-terminal polyhistidine tag (natural protein, human, UniProt P08118 21-114, looked up)
chain: SCYFIPNEGVPGDSTRKCMDLKGNKHPINSEWQTDNCETCTCYETEISCCTLVSTPVGYDKDNCQRIFKKEDCKYIVVEKKDPKKTCSVSEWII
notes: PSP94 (β-microseminoprotein), human; also called β-microseminoprotein; MSP; source: E. coli BL21, purified (nickel-NTA)
**Q.** For B1, which Kd (CRISP2 N97P, His-tagged [1]) is on record?
**A.** 8.1 nM

**Q.** What about the Kd (CRISP2 Y99P, His-tagged [2]) of the same molecule?
**A.** 9.3 nM

**Q.** What about the Kd (CRISP2 L98G, His-tagged [3]) of the same molecule?
**A.** 8.6 nM

**Q.** Does B1 bind [4]?
**A.** binds

**Q.** What about the Kd [5] of the same molecule?
**A.** 6 nM

**Q.** Does B1 bind (CRISP2 Y99P, His-tagged [6])?
**A.** binds

**Q.** Does B1 bind (CRISP2 L98G, His-tagged [7])?
**A.** binds

**Q.** Does B1 bind (CRISP2 N97P, His-tagged [8])?
**A.** binds

**Q.** And the Kd [9]?
**A.** 70 nM

B2: PSP94: prostate secretory protein of 94 amino acids, His-tagged, purified from E. coli; or expressed in yeast (protein)
chain: B1 chain
modifications: left off: polyhistidine, C-terminal, state not stated
notes: prostate secretory protein of 94 amino acids, His-tagged, purified from E. coli; or expressed in yeast
**Q.** What does the source list for B2?
**A.** Kd (CRISP2^N97P L98G): 4 ± 1.8 nM; effect on fatty acid export [10]: does not affect fatty acid binding and export
